The values below come from US20230322924A1 (Janssen / Centocor, published 2023).

The target in one experiment is T1, Human CD33 ECD-HSA (human).
T1 construct: CD33 ECD fused at the C-terminus to monomeric HSA (C58S) and a six-histidine tag; also called C33W2; huCD33 ECD-HSA
The experiment can be described thus: SPRi off-rate screen (IBIS MX96).

For a further experiment, the target named is T2, Human CD33-V-HSA (human).
T2 construct: V domain of human CD33 fused to HSA; also called C33W3; huCD33-V-HSA
The experiment can be described thus: SPRi off-rate screen (IBIS MX96).

In experiment [1] the target is T3, human PSMA on cells (LNCaP) (human, UniProt Q04609 1-750).
T3 construct: whole, on cells; also called LNCaP cells
Briefly: flow cytometry on LNCaP cells. The method, then: PSMA×CD3 bispecific antibodies were tested for binding to PSMA positive cell line, LNCAP, to PSMA negative cell line, PC3. To assess the binding capabilities of the PSMA bispecific antibodies, the cell-binding assay was utilized (described previously). Bispecific antibodies were normalized for protein concentration and then incubated with the same number of cells expressing either human or cyno PSMA. The MFI at each concentration was collected by flow cytometry and plotted as a function of concentration. Data was transformed via log 10 and then plotted. Nonlinear regression of binding curves was done to determine EC50s.
(In general: In flow cytometry, cells or beads pass a laser one at a time.)

The target in experiment [2] is T4, human TMEFF2 extracellular domain (ECD) (human, UniProt Q9UIK5 41-320).
T4 construct: also called TMEFF2-ECD
T4 sequence: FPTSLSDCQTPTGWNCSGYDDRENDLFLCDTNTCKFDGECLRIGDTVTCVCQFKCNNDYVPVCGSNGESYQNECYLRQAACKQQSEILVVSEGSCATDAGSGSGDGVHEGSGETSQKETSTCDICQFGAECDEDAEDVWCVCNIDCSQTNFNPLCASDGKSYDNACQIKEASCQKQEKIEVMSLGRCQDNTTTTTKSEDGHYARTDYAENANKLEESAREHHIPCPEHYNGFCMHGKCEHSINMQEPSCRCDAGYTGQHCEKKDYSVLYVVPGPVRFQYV
Briefly: KinExA solution equilibrium affinity. The method, then:
Serial dilutions of human TMEFF2 extracellular domain (ECD) were prepared with a constant concentration of anti-TMEFF2 mAb in 10 mM HEPES, 150 mM NaCL, 0.05% surfactant P20, pH 7.4, 0.1% BSA, and 0.02% NaN3. The reaction mixtures were incubated at RT until the binding interactions reached equilibrium. The duration of the incubation was determined using KinExA software simulation. Beads were prepared by direct covalent immobilization of TMEFF2-ECD by amine-coupling on pre-activated beads composed of bis-acrylamide/azlactone copolymer (Pierce Biotechnology, Inc.). After incubation the samples were run on the KinExA instrument to assess free antibody in the mixture by passing the mixture though the TMEFF2-modified beads, and detecting the captured antibody using a fluorescently labeled secondary antibody. The data was fit with a 1:1 binding model using the KinExA Pro software.
(A kinetic exclusion assay measures how much of one partner remains free in solution.)

The target of a further experiment is T5, N-terminal CD3ε peptide.
T5 construct: domain: N-terminal CD3ε peptide
The experiment can be described thus: Biacore 8K SPR, antibody captured on anti-human Ig, peptide as analyte. As for the experimental part:
Kinetic rate constants were measured by SPR performed using Biacore 8K (GE Healthcare) and anti-human Fc biosensor surfaces. Anti-human immunoglobulin antibodies were covalently coupled to the surface of a CM4 sensor chip (GE Healthcare). Antibodies of interest were captured on the anti-human immunoglobulin sensor chip, followed by injection of N-terminal CD3ε peptide at various concentrations in HEPES Buffered Saline containing 0.05% surfactant P20 (Tween™ 20) and 100 ug/mL BSA. The surface was regenerated with 2 pulses injections of 30 μL of 0.8% phosphoric acid at 100 μL/min. Data reported is the difference in SPR signal between the flow cell containing the captured antibody and a reference cell without captured antibody. Additional instrumental contributions to the signal were removed by subtraction of the data from the blank injection from the reference-subtracted signal. The data were analyzed by fitting association and dissociation phases at all concentrations (global fit) with a 1:1 binding model using the Biaevaluation software (Biacore, Inc.). Data is reported as average+95% CI (Confidence Interval) which is calculated by t value for 95% CI*stdev/square root of the number of replicates.
On the technique in general: In SPR one partner is held on a chip, and binding of the other changes the refractive index at the surface.

For the next experiment, the target named is T6, B-Defensin-3.
T6 construct: also called β-defensin
The experiment can be described thus: Biacore 8K non-specific binding test, antibody over immobilised protein. The method, then:
(§1) Non-specific binding of the lead molecule to unrelated surfaces is determined by biosensor technology (Biacore 8K). Antibody is passed over SPR surfaces coated with unrelated proteins. […] Irrelevant surfaces include negatively charged protein (Soy Trypsin Inhibitor), positively charged protein (Lysozyme and β-defensin), hydrophobic (Rh-integrin a4b7), human IgG, sticky protein (Rh-CD19). Proper controls are used in this experiment. Lead is flown over two surfaces, one is a blank and the other has a molecule directly immobilized. The response unit (RU) level is determined by subtracting the blank RU from the test surface RU. […] A response unit ≥100 predicts high risks for non-specific binding to charged/hydrophobic/IgG surfaces which would create challenges during manufacturing and translate to poor PK properties.

Another experiment concerns the target Human IgG. Described as above. As for the experimental part:
as §1

The next experiment deals with Lysozyme. The description is as above. The method, then: as §1
The target of a further experiment is rh-Integrin a4b7 (UniProt P13612 34-977; P26010 20-723, limits assumed). The description is as above. As for the experimental part:
as §1

Another experiment addresses T7, rh-CD19 (UniProt P15391 20-291, limits assumed).
T7 sequence (looked up): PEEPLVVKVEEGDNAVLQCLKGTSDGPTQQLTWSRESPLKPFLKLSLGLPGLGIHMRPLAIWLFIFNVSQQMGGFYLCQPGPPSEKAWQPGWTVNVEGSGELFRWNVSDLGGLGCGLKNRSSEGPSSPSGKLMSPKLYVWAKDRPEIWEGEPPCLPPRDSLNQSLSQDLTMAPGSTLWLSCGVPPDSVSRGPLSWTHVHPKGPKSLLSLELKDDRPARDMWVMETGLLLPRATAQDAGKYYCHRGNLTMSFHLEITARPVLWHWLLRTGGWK
Described as above. As for the experimental part: as §1

In experiment [3] the target is T8, human CD3 on human T cells (human, UniProt P07766 23-207).
T8 construct: Native TCR-CD3 complex on cells; also called primary human T cells; human pan T cells
The experiment can be described thus: flow cytometry, primary human T cells, AF647 anti-human IgG F(ab')2 secondary.
Method: The 80 mutant clones were assayed for binding to primary human T cells (FIGS. 7 and 8). […] The plates were centrifuged at 300×g for 5 minutes to pellet the cells and the supernatant removed. The plate was gently vortexed briefly to resuspend the cells.

For the next experiment, the target named is T9, Soy Trypsin Inhibitor (soy, UniProt P01070 25-205).
T9 construct: also called STI
T9 sequence (looked up): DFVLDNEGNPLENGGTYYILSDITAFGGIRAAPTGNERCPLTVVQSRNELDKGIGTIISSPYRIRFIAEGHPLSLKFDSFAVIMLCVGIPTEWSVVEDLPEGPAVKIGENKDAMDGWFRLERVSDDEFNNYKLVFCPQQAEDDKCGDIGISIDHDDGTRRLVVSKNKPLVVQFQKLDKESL
The experiment can be described thus: Biacore 8K non-specific binding test, antibody over immobilised protein. The method, then:
as §1

T5 sequence (P07766 22-48): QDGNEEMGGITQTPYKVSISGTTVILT
Lysozyme, sequence (P00698 19-147): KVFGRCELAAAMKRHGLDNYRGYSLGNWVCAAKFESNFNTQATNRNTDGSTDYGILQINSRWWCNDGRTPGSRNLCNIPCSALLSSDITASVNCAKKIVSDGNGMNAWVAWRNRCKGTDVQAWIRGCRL
T6 sequence (P81534 23-67): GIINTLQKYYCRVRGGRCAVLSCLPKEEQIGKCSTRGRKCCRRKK
T8 sequence (P07766 23-207 limits assumed): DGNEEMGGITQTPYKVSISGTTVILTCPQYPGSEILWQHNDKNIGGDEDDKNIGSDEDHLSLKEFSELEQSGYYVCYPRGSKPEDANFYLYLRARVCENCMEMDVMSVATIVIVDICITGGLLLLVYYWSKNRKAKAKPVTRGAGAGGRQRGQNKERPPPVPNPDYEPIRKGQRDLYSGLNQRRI
T3 sequence (Q04609 whole entry): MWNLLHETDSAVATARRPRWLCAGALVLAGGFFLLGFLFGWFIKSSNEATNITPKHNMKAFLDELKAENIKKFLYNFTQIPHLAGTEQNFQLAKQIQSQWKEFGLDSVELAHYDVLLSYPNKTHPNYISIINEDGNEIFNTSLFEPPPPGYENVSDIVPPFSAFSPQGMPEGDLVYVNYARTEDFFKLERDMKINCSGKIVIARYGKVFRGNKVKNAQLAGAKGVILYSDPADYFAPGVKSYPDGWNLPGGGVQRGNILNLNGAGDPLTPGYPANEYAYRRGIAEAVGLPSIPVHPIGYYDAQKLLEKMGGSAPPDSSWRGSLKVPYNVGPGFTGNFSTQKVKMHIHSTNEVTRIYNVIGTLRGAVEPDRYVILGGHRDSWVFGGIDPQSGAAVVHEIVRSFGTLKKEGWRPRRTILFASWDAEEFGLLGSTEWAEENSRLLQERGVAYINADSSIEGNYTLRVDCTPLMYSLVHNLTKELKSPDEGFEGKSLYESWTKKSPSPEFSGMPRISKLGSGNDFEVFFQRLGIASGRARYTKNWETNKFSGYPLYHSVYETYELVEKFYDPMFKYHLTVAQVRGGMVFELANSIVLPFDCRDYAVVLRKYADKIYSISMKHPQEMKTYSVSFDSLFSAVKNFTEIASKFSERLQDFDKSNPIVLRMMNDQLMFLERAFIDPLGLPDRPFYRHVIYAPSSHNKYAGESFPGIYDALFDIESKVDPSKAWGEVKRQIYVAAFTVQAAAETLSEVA

B1: C33B836 (antibody, IgG4, V domains shown)
VH: QVQLVQSGSELRKPGASVKVSCKASGYTFTNYAMNWVRQAPGQGLEWMGWINTNTGNPTYAQGFTGRFVFSLDTSVSSAYLQISSLKAEDTAMYYCATDRDRGTDYWGQGTLVTVSS
VL: QSALTQPASVSGSPGQSITISCTGTSSDVGDYNYVSWYQQHPGKVPKLMIYDVSNRPSGVSNRFSGSMSGNTASLTISGLQAEDEADYYCSSYSSSSALEVFGGGTKLTVL
notes: OMNIRat-derived; same V regions as C33B48; also called C33H80/C33L73; C33F53
One may read the koff as a measure of how fast the partners let go of each other. High values mean a short-lived complex, low ones a long-lived complex. Turning to B1, the results for the koff in the experiment with Human CD33 ECD-HSA and with Human CD33-V-HSA were 5.52e-05 s⁻¹ and 3.71e-05 s⁻¹, respectively.

B2: PS3B90 (bispecific antibody, human IgG4 S228P, kappa, lambda, F234A L235A)
heavy 1: not shown
light 1: not shown
heavy 2: QVQLQQSGPRLVRPSQTLSLTCAISGDSVFNNNAAWSWIRQSPSRGLEWLGRTYYRSKWLYDYAVSVKSRITVNPDTSRNQFTLQLNSVTPEDTALYYCARGYSSSFDYWGQGTLVTVSSASTKGPSVFPLAPCSRSTSESTAALGCLVKDYFPEPVTVSWNSGALTSGVHTFPAVLQSSGLYSLSSVVTVPSSSLGTKTYTCNVDHKPSNTKVDKRVESKYGPPCPPCPAPEAAGGPSVFLFPPKPKDTLMISRTPEVTCVVVDVSQEDPEVQFNWYVDGVEVHNAKTKPREEQFNSTYRVVSVLTVLHQDWLNGKEYKCKVSNKGLPSSIEKTISKAKGQPREPQVYTLPPSQEEMTKNQVSLTCLVKGFYPSDIAVEWESNGQPENNYKTTPPVLDSDGSFLLYSKLTVDKSRWQEGNVFSCSVMHEALHNHYTQKSLSLSLGK
light 2: QSALTQPASVSGSPGQSITISCTGTSSNIGTYKFVSWYQQHPDKAPKVLLYEVSKRPSGVSSRFSGSKSGNTASLTISGLQAEDQADYHCVSYAGSGTLLFGGGTKLTVLGQPKAAPSVTLFPPSSEELQANKATLVCLISDFYPGAVTVAWKADSSPVKAGVETTTPSKQSNNKYAASSYLSLTPEQWKSHRSYSCQVTHEGSTVEKTVAPTECS
notes: IgG4 PAA; also called PSMB365 x CD3B376
With B2, the binding result in experiment [1] is on record as “binds”.

B3: TMCB150 (bispecific antibody, human IgG4 S228P, kappa, lambda, F234A L235A)
heavy 1: not shown
light 1: not shown
heavy 2: QVQLQQSGPRLVRPSQTLSLTCAISGDSVFNNNAAWSWIRQSPSRGLEWLGRTYYRSKWLYDYAVSVKSRITVNPDTSRNQFTLQLNSVTPEDTALYYCARGYSSSFDYWGQGTLVTVSSASTKGPSVFPLAPCSRSTSESTAALGCLVKDYFPEPVTVSWNSGALTSGVHTFPAVLQSSGLYSLSSVVTVPSSSLGTKTYTCNVDHKPSNTKVDKRVESKYGPPCPPCPAPEAAGGPSVFLFPPKPKDTLMISRTPEVTCVVVDVSQEDPEVQFNWYVDGVEVHNAKTKPREEQFNSTYRVVSVLTVLHQDWLNGKEYKCKVSNKGLPSSIEKTISKAKGQPREPQVYTLPPSQEEMTKNQVSLTCLVKGFYPSDIAVEWESNGQPENNYKTTPPVLDSDGSFLLYSKLTVDKSRWQEGNVFSCSVMHEALHNHYTQKSLSLSLGK
light 2: QSALTQPASVSGSPGQSITISCTGTSSNIGTYKFVSWYQQHPDKAPKVLLYEVSKRPSGVSSRFSGSKSGNTASLTISGLQAEDQADYHCVSYAGSGTLLFGGGTKLTVLGQPKAAPSVTLFPPSSEELQANKATLVCLISDFYPGAVTVAWKADSSPVKAGVETTTPSKQSNNKYAASSYLSLTPEQWKSHRSYSCQVTHEGSTVEKTVAPTECS
notes: IgG4 PAA bispecific by Fab-arm exchange; also called TMEB762 x CD3B376
As a reminder, the Kd is a measure of binding affinity in units of concentration. Read a low Kd as a tighter complex. As a reminder, the kon is the rate constant with which the complex forms. On to B3, for which the dissociation constant (Kd) in experiment [2] was found to be 0.0636 nM; with N-terminal CD3ε peptide, 28.7 nM. This molecule also came in with a koff with N-terminal CD3ε peptide of 0.00103 s⁻¹. For the same molecule, the kon with N-terminal CD3ε peptide was 35700 M⁻¹ s⁻¹. The “response units (RU)” value with B-Defensin-3 came out at 6.4 RU; with Human IgG it was 7.5 RU; in the experiment with Lysozyme, 4.2 RU; in the experiment with rh-Integrin a4b7, 0 RU; with rh-CD19, 3.4 RU.

B4: D43G/V48L/L49M/L50I/S62N/Q85E/H89Y LC (with WT HC) (antibody, V domains shown)
VH: QVQLQQSGPRLVRPSQTLSLTCAISGDSVFNNNAAWSWIRQSPSRGLEWLGRTYYRSKWLYDYAVSVKSRITVNPDTSRNQFTLQLNSVTPEDTALYYCARGYSSSFDYWGQGTLVTVSS
VL: QSALTQPASVSGSPGQSITISCTGTSSNIGTYKFVSWYQQHPGKAPKLMIYEVSKRPSGVSNRFSGSKSGNTASLTISGLQAEDEADYYCCSYAGSGTLLFGGGTKLTVL
notes: also called BLW-2E6 variant CD3H219/CD3L136
As to B4, in experiment [3], the binding result is given as “no binding (tested: 50 nM)”.

B5: CD3B376 (antibody, human IgG4 S228P, lambda, F234A L235A, V domains shown)
VH: QVQLQQSGPRLVRPSQTLSLTCAISGDSVFNNNAAWSWIRQSPSRGLEWLGRTYYRSKWLYDYAVSVKSRITVNPDTSRNQFTLQLNSVTPEDTALYYCARGYSSSFDYWGQGTLVTVSS
VL: QSALTQPASVSGSPGQSITISCTGTSSNIGTYKFVSWYQQHPDKAPKVLLYEVSKRPSGVSSRFSGSKSGNTASLTISGLQAEDQADYHCVSYAGSGTLLFGGGTKLTVLG
notes: Bivalent anti-CD3 parental mAb, IgG4 PAA with F405L and R409K; also called CD3H219/CD3L150
B5 had a Kd with N-terminal CD3ε peptide of 26.9 nM. The same molecule displayed a koff in the experiment with N-terminal CD3ε peptide of 0.00117 s⁻¹. In the experiment with N-terminal CD3ε peptide, this molecule gave a kon of 43300 M⁻¹ s⁻¹. In addition, the “response units (RU)” value in the experiment with Soy Trypsin Inhibitor is 19.5 RU; in the experiment with B-Defensin-3, 3.1 RU; with Human IgG, 0.4 RU; with Lysozyme, 0.2 RU; with rh-Integrin a4b7, 0 RU; with rh-CD19, 0 RU.
